According to patent publication US20070014790A1 (JAPAN SCIENCE AND TECHOLOGY AGENCY, published 2007):

B1: GAL4 AD-ZHX1 fusion pAD-ZHX1 (430-564) (other, human, UniProt Q9UKY1 430-564, looked up, not shown: large carriers)
chain: QVPAAQPTAETKPATAAVPTSQSVKHETALVNPDSFGIRAKKTKEQLAELKVSYLKNQFPHDSEIIRLMKITGLTKGEIKKWFSDTRYNQRNSKSNQCLHLNNDSSTTIIIDSSDETTESPTVGTAQPKQSWNPF
notes: range 430-564
B2: GAL4 AD-ZHX3 fusion pAD-ZHX3 (303-364) (other, not shown: large carriers)
chain: LSSIPTYNAAMDSNSFLKNSFHKFPYPTKAELCYLTVVTKYPEEQLKIWFTAQRLKQGISWS
notes: It is the HD1 region
B3: GAL4 AD alone (pACT2) (other, yeast, UniProt P04386 768-881, looked up)
chain: ANFNQSGNIADSSLSFTFTNSSNGPNLITTQTNSQALSQPIASSNVHDNFMNNEITASKIDDGNNSKPLSPGWTDQTAYNAFGITTGMFNTTTMDDVYNYLFDDEDTPPNPKKE
notes: domain: AD; Control prey
B4: GAL4 AD-ZHX1 fusion pAD-ZHX1 (345-463) (other, human, UniProt Q9UKY1 345-463, looked up, not shown: large carriers)
chain: PEEVEEARRKQFNGTVHTVPQTITVIPTHISTGSNGLPSILQTCQIVGQPGLVLTQVAGTNTLPVTAPIALTVAGVPSQNNIQKSQVPAAQPTAETKPATAAVPTSQSVKHETALVNPD
notes: range 345-463

Each binder was assayed against T1, GAL4 DBD alone (pDBD) (yeast, UniProt P04386 1-147) (assay: yeast two-hybrid, β-galactosidase activity).
T1 construct: Control bait
T1 sequence (P04386 1-147 limits assumed): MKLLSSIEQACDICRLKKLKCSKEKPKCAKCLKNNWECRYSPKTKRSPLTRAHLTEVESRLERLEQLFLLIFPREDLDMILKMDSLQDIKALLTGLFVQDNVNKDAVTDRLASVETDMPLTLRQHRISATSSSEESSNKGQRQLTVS

| Binder | binding result |
| --- | --- |
| B1 | no binding |
| B2 | no binding |
| B3 | no binding |
| B4 | no binding |
